Test results from patent publication US20200277366A1 (UCB, published 2020).
Substitutions are numbered along the chain they refer to.

How the values were obtained:
human serum albumin = target: T1, human serum albumin (human, UniProt P02768 25-609); test: SPR (Biacore T200), TrYbe 18B captured by anti-human F(ab')2, HSA titrated 100 nM to 3.125 nM
T1 construct: also called HSA; Human Albumin
Protocol: (§1) BIA (Biamolecular Interaction Analysis) was performed using a Biacore T200 (GE Healthcare). Affinipure F(ab′)2 Fragment goat anti-human IgG, F(ab′)2 fragment specific (Jackson ImmunoResearch) was immobilised on a CM5 Sensor Chip via amine coupling chemistry to a capture level of ˜5000 response units (RUs). HBS-EP buffer (10 mM HEPES pH 7.4, 0.15 M NaCl, 3 mM EDTA, 0.05% Surfactant P20, GE Healthcare) was used as the running buffer with a flow rate of 10 μL/min. […] The surface was regenerated by 2×10 μL injection of 50 mM HCl, interspersed by a 5 μL injection of 5 mM NaOH at a flowrate of 10 μL/min. Background subtraction binding curves were analysed using the T200evaluation software (version 1.0) following standard procedures. Kinetic parameters were determined from the fitting algorithm.

cynomolgus IL-17A [1] = target: T2, cynomolgus IL-17A (cynomolgus, UniProt A0A2K5TTB0 24-155); test: SPR (Biacore T200), TrYbe 18B captured by anti-human F(ab')2, cynomolgus IL-17A titrated 10 nM to 0.3125 nM
T2 construct: also called cIL-17A; cynoIL-17A
Protocol: as §1, with “of […]. Background subtraction” for “of 10 μL/min. Background subtraction”

human IL-17F = target: T3, human IL-17F (human, UniProt Q96PD4 31-163); test: SPR (Biacore T200), TrYbe 18B captured by anti-human F(ab')2, human IL-17F titrated 10 nM to 0.3125 nM
T3 sequence (looked up): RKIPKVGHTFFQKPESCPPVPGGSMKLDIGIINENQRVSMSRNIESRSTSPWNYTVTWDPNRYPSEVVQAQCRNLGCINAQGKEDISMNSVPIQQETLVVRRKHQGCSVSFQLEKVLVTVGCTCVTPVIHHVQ
Protocol: as §1

murine TNF-alpha = target: T4, murine TNF-alpha (mouse, UniProt P06804 80-235); test: L929 cell killing assay with murine TNF-α (N=3); told in words
T4 construct: also called mouse TNF; Murine TNF-α
T4 sequence (looked up): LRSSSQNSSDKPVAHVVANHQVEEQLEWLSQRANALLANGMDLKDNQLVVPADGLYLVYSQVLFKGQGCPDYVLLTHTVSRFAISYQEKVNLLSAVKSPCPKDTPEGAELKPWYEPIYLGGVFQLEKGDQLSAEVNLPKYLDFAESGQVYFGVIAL

human IL-17A [2] = target: T5, human IL-17A (human, UniProt Q16552 24-155); test: SPR (Biacore T200), TrYbe 18B captured by anti-human F(ab')2, human IL-17A titrated 5 nM to 0.15625 nM
T5 construct: also called hIL-17A
Protocol: as §1

cynomolgus IL-17A [3] = target: T2, cynomolgus IL-17A; test: SPR (Biacore T200), TrYbe 18B captured by anti-human F(ab')2, cynomolgus IL-17A titrated 10 nM to 0.3125 nM; footnote: dissociation limited due to limit of the instrument
Protocol: as §1, with “of […]. Background subtraction” for “of 10 μL/min. Background subtraction”

human IL-17A [4] = target: T5, human IL-17A; test: SPR (Biacore T200), TrYbe 18B captured by anti-human F(ab')2, human IL-17A titrated 5 nM to 0.15625 nM; kd at the instrument's limit
Protocol: as §1

cynomolgus TNF-alpha [5] = target: T6, cynomolgus TNF-alpha (cynomolgus, UniProt P79337 77-233); test: SPR (Biacore T200), TrYbe 18B captured by anti-human F(ab')2, cynomolgus TNF titrated 5 nM to 0.15625 nM
T6 construct: also called cyno TNF; cTNF
Protocol: as §1, with “of […]. Background subtraction” for “of 10 μL/min. Background subtraction”

cynomolgus IL-17A [6] = target: T2, cynomolgus IL-17A; test: SPR (Biacore T200), TrYbe 18B captured; column head prints KD(nM), but the KD(M) column shows the value is in pM; kd at the instrument's limit
Protocol: as §1, with “of […]. Background subtraction” for “of 10 μL/min. Background subtraction”

human TNF-alpha [7] = target: T7, human TNF-alpha (human, UniProt P01375 77-233); test: SPR (Biacore T200), TrYbe 18B captured by anti-human F(ab')2, human TNF titrated 5 nM to 0.15625 nM
T7 construct: also called hTNF; human TNFα
Protocol: as §1

cynomolgus serum albumin [8] = target: T8, cynomolgus serum albumin (cynomolgus, UniProt A2V9Z4 25-608); test: SPR (Biacore T200), TrYbe 18B captured by anti-human F(ab')2, cynomolgus albumin titrated 100 nM to 3.125 nM
T8 construct: also called Cynomolgus Albumin; CSA
Protocol: as §1, with “of […]. Background subtraction” for “of 10 μL/min. Background subtraction”

cynomolgus IL-17F [9] = target: T9, cynomolgus IL-17F (cynomolgus, UniProt G7P4V0 31-163); test: SPR (Biacore T200), TrYbe 18B captured by anti-human F(ab')2, cynomolgus IL-17F titrated 40 nM to 1.25 nM
T9 construct: also called cyno IL-17F
T9 sequence: T3 sequence (looked up) with G22E, I29T, R73K, N74H, V100L, I129V
Protocol: as §1, with “of […]. Background subtraction” for “of 10 μL/min. Background subtraction”

cynomolgus TNF-alpha [10] = target: T6, cynomolgus TNF-alpha; test: cell-based or functional assay
human TNF-alpha [11] = target: T7, human TNF-alpha; test: cell-based or functional assay
cynomolgus serum albumin [12] = target: T8, cynomolgus serum albumin; test: SPR (Biacore T200), TrYbe 18B captured; column head prints KD(nM), but the KD(M) column shows the value is in pM
Protocol: as §1, with “of […]. Background subtraction” for “of 10 μL/min. Background subtraction”

cynomolgus IL-17F [13] = target: T9, cynomolgus IL-17F; test: as above
Protocol: as §1, with “of […]. Background subtraction” for “of 10 μL/min. Background subtraction”

cynomolgus TNF-alpha [14] = target: T6, cynomolgus TNF-alpha; test: as above
Protocol: as §1, with “of […]. Background subtraction” for “of 10 μL/min. Background subtraction”

human IL-17A [15] = target: T5, human IL-17A; test: SPR (Biacore T200), TrYbe 18B captured by anti-human F(ab')2, human IL-17A titrated 5 nM to 0.15625 nM; footnote: dissociation limited due to limit of the instrument
Protocol: as §1

cynomolgus IL-17A [16] = target: T2, cynomolgus IL-17A; test: SPR (Biacore T200), TrYbe 18B captured by anti-human F(ab')2, cynomolgus IL-17A titrated 10 nM to 0.3125 nM; kd at the instrument's limit
Protocol: as §1, with “of […]. Background subtraction” for “of 10 μL/min. Background subtraction”

Kd (human serum albumin): 1740 pM
koff (human serum albumin): 0.000135 s⁻¹
kon (human serum albumin): 77500 M⁻¹ s⁻¹
kon (cynomolgus IL-17A [1]): 1.67e+06 M⁻¹ s⁻¹
Kd (human IL-17F): 7.51 pM
koff (human IL-17F): 3.8e-05 s⁻¹
kon (human IL-17F): 5.06e+06 M⁻¹ s⁻¹
kon (human IL-17A [2]): 5.52e+06 M⁻¹ s⁻¹
koff (cynomolgus IL-17A [3]): ≤ 1e-05 s⁻¹
Kd (human IL-17A [4]): ≤ 1.81 pM
Kd (cynomolgus TNF-alpha [5]): 7.16 pM
koff (cynomolgus TNF-alpha [5]): 6.38e-05 s⁻¹
kon (cynomolgus TNF-alpha [5]): 8.9e+06 M⁻¹ s⁻¹
Kd (cynomolgus IL-17A [6]): 5.99 pM
Kd (human TNF-alpha [7]): 11.6 pM
koff (human TNF-alpha [7]): 6.43e-05 s⁻¹
kon (human TNF-alpha [7]): 5.54e+06 M⁻¹ s⁻¹
Kd (cynomolgus serum albumin [8]): 2720 pM
koff (cynomolgus serum albumin [8]): 0.000159 s⁻¹
kon (cynomolgus serum albumin [8]): 58300 M⁻¹ s⁻¹
Kd (cynomolgus IL-17F [9]): 288 pM
koff (cynomolgus IL-17F [9]): 0.000167 s⁻¹
kon (cynomolgus IL-17F [9]): 582000 M⁻¹ s⁻¹
Kd (cynomolgus serum albumin [12]): 2720 pM
Kd (cynomolgus IL-17F [13]): 288 pM
Kd (cynomolgus TNF-alpha [14]): 7.16 pM
koff (human IL-17A [15]): ≤ 1e-05 s⁻¹
Kd (cynomolgus IL-17A [16]): ≤ 5.99 pM
B1: Fab496.g3-(HC)dsscFv(HL)2109 / Fab496.g3-(LC)dsscFv(HL)645 (TrYbe 18B) (other)
heavy: EVQLVESGGGLVQPGGSLRLSCAASGFTFSDYNMAWVRQAPGKGLEWVATITYEGRNTYYRDSVKGRFTISRDNAKNSLYLQMNSLRAEDTAVYYCASPPQYYEGSIYRLWFAHWGQGTLVTVSSASTKGPSVFPLAPSSKSTSGGTAALGCLVKDYFPEPVTVSWNSGALTSGVHTFPAVLQSSGLYSLSSVVTVPSSSLGTQTYICNVNHKPSNTKVDKKVEPKSCSGGGGSGGGGSEVQLVESGGGLVKPGGSLRLSCAASGYTFTDNYIHWVRQAPGKCLEWIGYINPSSAYAHYNEKFKTRFTISVDKAKNSAYLQMNSLRAEDTAVYYCTRRYYSAMPFAYWGQGTLVTVSSGGGGSGGGGSGGGGSGGGGSDIQMTQSPSSLSASVGDRVTITCRASEDIYSGLAWYQQKPGKVPKLLIYDSSTLHTGVPSRFSGTGSGTDYTLTISSLQPEDVATYFCQQNYDFPLTFGCGTKLEIKRT
light: AIQLTQSPSSLSASVGDRVTITCRADESVRTLMHWYQQKPGKAPKLLIYLVSNSEIGVPDRFSGSGSGTDFRLTISSLQPEDFATYYCQQTWSDPWTFGQGTKVEIKRTVAAPSVFIFPPSDEQLKSGTASVVCLLNNFYPREAKVQWKVDNALQSGNSQESVTEQDSKDSTYSLSSTLTLSKADYEKHKVYACEVTHQGLSSPVTKSFNRGECSGGGGSGGGGSEVQLLESGGGLVQPGGSLRLSCAVSGIDLSNYAINWVRQAPGKCLEWIGIIWASGTTFYATWAKGRFTISRDNSKNTVYLQMNSLRAEDTAVYYCARTVPGYSTAPYFDLWGQGTLVTVSSGGGGSGGGGSGGGGSGGGGSDIQMTQSPSSVSASVGDRVTITCQSSPSVWSNFLSWYQQKPGKAPKLLIYEASKLTSGVPSRFSGSGSGTDFTLTISSLQPEDFATYYCGGGYSSISDTTFGCGTKVEIKRT
notes: Tri-specific Fab-2xdsscFv (TrYbe) with no Fc; Stably expressed in CHO; also called Fab496.g3-(HC)dsHLscFv2109 (LC)dsHLscFv645
binding result (murine TNF-alpha): no binding
Mean EC50, L929 cell survival (CellTiter-Glo) with Actinomycin D and cynomolgus TNF-α (cynomolgus TNF-alpha [10]): 4.97 pM
Mean EC50, L929 cell survival (CellTiter-Glo) with Actinomycin D and human TNF-α (human TNF-alpha [11]): 5.87 pM
